In experiment [1] the target is HLA-A*02:02. The experiment can be described thus: IEDB peptide-MHC binding, cellular MHC/competitive/fluorescence; ≥ and ≤ were set here for values at or beyond the usual limits of such assays.
Experiment [2] concerns the target HLA-A*68:02. The experiment is described as above. The following applies: source organism: Vaccinia virus WR.
For experiment [3], the target named is HLA-A*02:06. The experiment is described as above.
The target of experiment [4] is HLA-A*02:01. The description is as above.
The target in experiment [5] is HLA-A*02:03. The experiment in a line: IEDB peptide-MHC binding, purified MHC/competitive/radioactivity; ≥ and ≤ were set here for values at or beyond the usual limits of such assays.
Experiment [6] addresses HLA-A*68:02. The description is as above.
Experiment [7] addresses HLA-A*02:01. The description is as above.
Setting [8] is: source organism: Vaccinia virus WR.
Where [9] appears, read: source organism: Influenza A virus.

Consider LMLHNPTSET, for which the IC50 is 39.3 µM in experiment [1] (setting [8]); no less than 70 µM in experiment [2]; 11.1 µM in experiment [3] (setting [8]); 8.92 µM in experiment [4] (setting [8]); 4.48 µM in experiment [5] (setting [8]).
As to FISYNRHNDT, the half-maximal inhibitory concentration (IC50) in experiment [1] (setting [8]) came out at 6.84 µM; in experiment [3] (setting [8]), 11.2 µM; in experiment [4] (setting [8]), 36.3 µM; in experiment [6] (setting [8]), 2.28 µM; in experiment [5] (setting [8]), 4.93 µM.
HQRRLVKLL: the IC50 in experiment [1] (setting [8]) is 15.9 µM; in experiment [2], no less than 70 µM; in experiment [3] (setting [8]), 21.3 µM; in experiment [4] (setting [8]), 26.6 µM; in experiment [5] (setting [8]), 1.68 µM.
On the same counts, the results for WIKNLETYT are 18.3 µM, no less than 70 µM, 8.2 µM, 49.5 µM and 0.637 µM.
For the sequence RTRLYDYFT, the IC50 amounted to 7.1 µM in experiment [1] (setting [8]); 27.2 µM in experiment [2]; 48.7 µM in experiment [3] (setting [8]); 49.5 µM in experiment [4] (setting [8]); 3.05 µM in experiment [5] (setting [8]).
The corresponding values for TAGNKVDVDI are 11 µM, 9.83 µM, 38.1 µM, 40.2 µM and 3.5 µM.
On to NMWREILSNT, for which the IC50 worked out at 6.07 µM in experiment [1] (setting [8]); 63.2 µM in experiment [2]; 12 µM in experiment [3] (setting [8]); 0.997 µM in experiment [7] (setting [8]); 0.056 µM in experiment [5] (setting [8]).
As to RTEIIRMMESA, the IC50 is 8.29 µM in experiment [1] (setting [9]); no less than 70 µM in experiment [3] (setting [9]); no less than 70 µM in experiment [4] (setting [9]); 4.32 µM in experiment [6] (setting [9]); 4.47 µM in experiment [5] (setting [9]).
Take VIRHVDGKI: the IC50 was found to be 8.55 µM in experiment [1] (setting [8]); 9.27 µM in experiment [3] (setting [8]); 43.3 µM in experiment [4] (setting [8]); 1.45 µM in experiment [6] (setting [8]); 0.978 µM in experiment [5] (setting [8]).
As for ETMYLTMKA, the IC50 in experiment [1] (setting [8]) is 7.85 µM; in experiment [3] (setting [8]), 12.7 µM; in experiment [4] (setting [8]), 19.1 µM; in experiment [6] (setting [8]) it was 0.00064 µM; in experiment [5] (setting [8]), 0.942 µM.
The corresponding values for TAIRAGYSIV are 6.82 µM, 8.59 µM, 26.2 µM, 1.05 µM and 0.072 µM.
On the same counts, the results for DITNILGGV are 9.88 µM, 7.43 µM, 11.4 µM, 0.012 µM and 1.64 µM.
The corresponding values for STKADAVVA are 8.19 µM, 16.2 µM, 29.3 µM, 0.82 µM and 4.95 µM.
For TVEFDRDKVV, the IC50 in experiment [1] (setting [8]) was 16.2 µM; in experiment [3] (setting [8]), 30.8 µM; in experiment [4] (setting [8]), 30.9 µM; in experiment [6] (setting [8]), 2.63 µM; in experiment [5] (setting [8]), 1.59 µM.
For RVNHAKYMVT, the IC50 in experiment [1] (setting [8]) was 33.6 µM; in experiment [3] (setting [8]), 9.34 µM; in experiment [4] (setting [8]), 39 µM; in experiment [6] (setting [8]), 0.544 µM; in experiment [5] (setting [8]), 1.05 µM.
As for NTLISSDGA, the IC50 was found to be 7.41 µM in experiment [1] (setting [8]), 25.4 µM in experiment [2], 49.3 µM in experiment [3] (setting [8]) and 3.57 µM in experiment [5] (setting [8]).
On the same counts, the results for KLYIALCKVT are 7.11 µM, 18.6 µM, 6.36 µM and 0.625 µM.
Regarding EVMPEKRNVV, the IC50 was 20.2 µM in experiment [1] (setting [8]); 12.1 µM in experiment [3] (setting [8]); 44.3 µM in experiment [4] (setting [8]); 0.107 µM in experiment [6] (setting [8]); 2.62 µM in experiment [5] (setting [8]).
In the case of EIRGVLPEET, the IC50 amounted to 9.6 µM in experiment [1] (setting [8]); 20.1 µM in experiment [3] (setting [8]); 30.5 µM in experiment [4] (setting [8]); 4.54 µM in experiment [6] (setting [8]); 4.87 µM in experiment [5] (setting [8]).
On to GADINLMPI, for which the IC50 in experiment [1] (setting [9]) worked out at 7.41 µM; in experiment [3] (setting [9]), 5.77 µM; in experiment [4] (setting [9]) it was 11.9 µM; in experiment [6] (setting [9]) it was 4.41 µM; in experiment [5] (setting [9]), 3.3 µM.
As to DAMIHKTYI, the IC50 is 5.42 µM in experiment [1] (setting [8]); 9.56 µM in experiment [3] (setting [8]); 8.17 µM in experiment [4] (setting [8]); 0.087 µM in experiment [6] (setting [8]); 1.52 µM in experiment [5] (setting [8]).
The corresponding values for NTKSDNIINI are 30.8 µM, no less than 70 µM, no less than 70 µM, 0.101 µM and 1.08 µM.
For the sequence NISFKSINKV, the IC50 in experiment [1] (setting [8]) was found to be 20.3 µM; in experiment [3] (setting [8]), 11.7 µM; in experiment [4] (setting [8]), 14.5 µM; in experiment [6] (setting [8]), 2.03 µM; in experiment [5] (setting [8]) it was 1.53 µM.
Regarding DITNILGGVL, the IC50 was determined as 12.3 µM in experiment [1] (setting [8]); 19 µM in experiment [3] (setting [8]); 16.2 µM in experiment [4] (setting [8]); 0.515 µM in experiment [6] (setting [8]); 3.68 µM in experiment [5] (setting [8]).
On to PTSETMYLT, for which the IC50 in experiment [1] (setting [8]) was 10.4 µM; in experiment [3] (setting [8]), no less than 70 µM; in experiment [4] (setting [8]), 34.9 µM; in experiment [6] (setting [8]), 4.04 µM; in experiment [5] (setting [8]), 3.64 µM.
Consider LVITYCLVT, for which the IC50 in experiment [1] (setting [8]) was found to be 6.98 µM; in experiment [2], 5.75 µM; in experiment [3] (setting [8]), 8.01 µM; in experiment [7] (setting [8]), 1.33 µM; in experiment [5] (setting [8]), 3.25 µM.
Consider HANNSTDTV, for which the IC50 in experiment [1] (setting [9]) is 8.32 µM; in experiment [3] (setting [9]), 55 µM; in experiment [4] (setting [9]), 24 µM; in experiment [6] (setting [9]), 0.168 µM; in experiment [5] (setting [9]), 4.32 µM.
For SVDAMIHKT, the IC50 in experiment [1] (setting [8]) was 5.02 µM; in experiment [3] (setting [8]) it was 10.6 µM; in experiment [4] (setting [8]) it was 24.1 µM; in experiment [6] (setting [8]) it was 0.878 µM; in experiment [5] (setting [8]) it was 3.66 µM.
The corresponding values for SVNASKTINA are 17.3 µM, 28.7 µM, 19.3 µM, 0.629 µM and 0.731 µM.
Take YVSSSYKDI: the IC50 in experiment [1] (setting [8]) turned out to be 5.04 µM; in experiment [3] (setting [8]), 16.6 µM; in experiment [4] (setting [8]), 31.2 µM; in experiment [6] (setting [8]), 2.63 µM; in experiment [5] (setting [8]) it was 1.2 µM.
The corresponding values for EVGTNFGTI are 5.76 µM, 19.9 µM, 20.1 µM, 0.069 µM and 1.94 µM.
On the same counts, the results for EVLMSPCRM are 6.83 µM, 11.8 µM, 27.9 µM, 1.52 µM and 0.651 µM.
Regarding RTWKVLSIM, the IC50 in experiment [1] (setting [8]) was 19.1 µM; in experiment [3] (setting [8]), 33.9 µM; in experiment [6] (setting [8]), 4.13 µM; in experiment [7] (setting [8]) it was 0.84 µM; in experiment [5] (setting [8]), 2.63 µM.
On the same counts, the results for LTKDRKMLEL are 7.7 µM, 20.8 µM, 4.84 µM, 3.43 µM and 0.133 µM.
In the case of EAFETQSGAL, the IC50 worked out at 8.56 µM in experiment [1] (setting [8]); 15 µM in experiment [3] (setting [8]); 14.2 µM in experiment [4] (setting [8]); 0.068 µM in experiment [6] (setting [8]); 0.995 µM in experiment [5] (setting [8]).
As for VNPTLLFLKV, the IC50 in experiment [1] (setting [9]) came to 6.37 µM; in experiment [3] (setting [9]) it was 16.4 µM; in experiment [6] (setting [9]), 0.024 µM; in experiment [7] (setting [9]), 3.73 µM; in experiment [5] (setting [9]), 2.81 µM.

As usually defined, the IC50 is the concentration that inhibits the measured activity by half.

The values above are taken from the Immune Epitope Database (IEDB).
